{"source": "paper PMC3750979", "key": {"NHis-Purβ (full-length) [1]": {"target": "T1, NHis-Purβ (full-length) (Mus musculus, UniProt O35295 1-324)", "T1 sequence": "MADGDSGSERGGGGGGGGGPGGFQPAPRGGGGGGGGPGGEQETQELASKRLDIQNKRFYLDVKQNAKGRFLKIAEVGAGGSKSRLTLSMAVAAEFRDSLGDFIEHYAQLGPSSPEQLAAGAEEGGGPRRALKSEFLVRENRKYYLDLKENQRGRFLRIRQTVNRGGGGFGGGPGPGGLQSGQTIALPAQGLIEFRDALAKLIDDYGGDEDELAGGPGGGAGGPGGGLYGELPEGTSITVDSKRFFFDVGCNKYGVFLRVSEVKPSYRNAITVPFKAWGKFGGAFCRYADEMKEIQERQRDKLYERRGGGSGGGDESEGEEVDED", "assay": "competition"}, "NHis-Purβ I-II-III [2]": {"target": "T2, NHis-Purβ I-II-III (Mus musculus, UniProt O35295 41-303)", "T2 sequence": "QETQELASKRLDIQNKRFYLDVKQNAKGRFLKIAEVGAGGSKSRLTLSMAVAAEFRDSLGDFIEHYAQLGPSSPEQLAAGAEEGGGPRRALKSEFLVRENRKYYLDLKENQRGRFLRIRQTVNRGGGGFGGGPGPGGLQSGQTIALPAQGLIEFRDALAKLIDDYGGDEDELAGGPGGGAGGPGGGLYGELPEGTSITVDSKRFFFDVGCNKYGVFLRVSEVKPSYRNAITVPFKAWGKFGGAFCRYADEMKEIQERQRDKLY", "assay": "competition"}, "NHis-Purβ (full-length) [3]": {"target": "T1, NHis-Purβ (full-length)", "assay": "ssDNA-binding ELISA"}, "NHis-Purβ I-II-III [4]": {"target": "T2, NHis-Purβ I-II-III", "assay": "ssDNA-binding ELISA"}, "NHis-Purβ III": {"target": "T3, NHis-Purβ III (Mus musculus, UniProt O35295 209-303)", "T3 sequence": "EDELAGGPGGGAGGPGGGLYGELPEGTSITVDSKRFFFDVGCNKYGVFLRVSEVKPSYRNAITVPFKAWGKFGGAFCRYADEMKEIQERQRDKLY", "assay": "ssDNA-binding ELISA"}}, "data": [{"binder": "GGGAGCAGAACAGAGGAATGCAGTGGAAGAGA (ssDNA)", "note": "[PE32-bF]", "values": [{"measurement": "IC50", "setting": "NHis-Purβ (full-length) [1]", "result": "1.2 ± 0.2", "unit": "nM"}, {"measurement": "IC50", "setting": "NHis-Purβ I-II-III [2]", "result": "1 ± 0.3", "unit": "nM"}, {"measurement": "apparent K (half saturation)", "setting": "NHis-Purβ (full-length) [3]", "result": "0.16 ± 0.05", "unit": "nM"}, {"measurement": "apparent K (half saturation)", "setting": "NHis-Purβ I-II-III [4]", "result": "0.22 ± 0.05", "unit": "nM"}, {"measurement": "apparent K (half saturation)", "setting": "NHis-Purβ III", "result": "1.8 ± 0.74", "unit": "nM"}]}]}
